{
  "source": "patent US20250043302A1",
  "about": "“MUTATED HYDROXYPHENYLPYRUVATE DIOXYGENASE POLYPEPTIDE, AND CODING GENE AND USE THEREOF” (BEIJING DABEINONG BIOTECHNOLOGY CO., LTD., priority 2021, published 2025)",
  "molecules": {"B1": {"name": "AsHPPDm-F372A-F415W-02: nucleotide sequence encoding Avena sativa HPPD with F372A+F415W; vector DBN11792 (nucleic acid)", "DNA": "ATGCCACCTACTCCAGCTACAGCTACTGGTGCTGCTGCTGCTGCCGTTACTCCTGAGCACGCTGCCAGGTCATTCCCCAGGGTGGTTCGCGTGAACCCCAGATCTGATAGGTTCCCAGTTCTGAGCTTCCACCATGTTGAGCTGTGGTGCGCTGATGCTGCTTCTGCTGCTGGCAGGTTCTCTTTCGCTCTTGGTGCTCCACTCGCTGCTAGATCTGATCTGTCTACAGGAAATAGCGCTCATGCCTCACTCCTGCTTCGCTCAGGTGCTTTGGCCTTCCTCTTCACCGCTCCATATGCTCCCCCACCTCAGGAGGCTGCTACTGCTGCTGCTACAGCCTCCATTCCAAGCTTCTCAGCTGATGCCGCTAGAACCTTCGCTGCTGCTCATGGACTTGCCGTGAGGTCTGTTGGTGTTCGCGTGGCTGATGCTGCTGAGGCTTTCAGAGTTTCCGTTGCCGGCGGAGCTAGGCCAGCTTTCGCTCCTGCTGATTTGGGACATGGTTTCGGCCTGGCTGAGGTTGAGCTTTACGGTGACGTGGTTCTCCGCTTCGTGTCTTACCCAGATGAGACTGACCTGCCTTTCCTTCCCGGCTTCGAGAGAGTTTCCTCTCCTGGTGCCGTGGATTACGGCCTGACAAGGTTCGACCACGTGGTTGGAAACGTTCCCGAGATGGCTCCAGTGATCGATTACATGAAGGGCTTCCTTGGATTCCATGAGTTCGCCGAGTTCACTGCTGAGGACGTGGGAACCACTGAGTCCGGTTTGAACTCTGTGGTTCTCGCCAACAATTCTGAGGCTGTTTTGCTCCCTCTGAATGAGCCTGTGCATGGAACCAAGAGGAGAAGCCAGATTCAAACTTACCTGGAGTACCACGGTGGCCCTGGAGTTCAGCATATCGCCCTTGCTTCTAATGATGTGTTGCGCACACTCAGAGAGATGCGCGCCAGAACCCCCATGGGAGGTTTCGAGTTCATGGCCCCACCACAGGCTAAGTACTACGAGGGCGTTAGAAGGATTGCTGGAGACGTGTTGAGCGAGGAGCAGATCAAGGAGTGCCAAGAGCTGGGTGTTCTTGTGGATAGGGATGACCAGGGCGTTCTGCTTCAAATTGCCACTAAGCCAGTGGGCGACCGCCCTACATTCTTCCTTGAGATGATTCAAAGAATCGGCTGCATGGAGAAGGATGAGGTTGGACAGGAGTACCAAAAGGGCGGATGCGGTGGCTTCGGAAAGGGTAACTGGAGCGAGTTGTTCAAGTCAATCGAGGACTACGAGAAGAGCCTCGAGGTGAAGCAGTCAGTGGTTGCCCAAAAGTCCTGA", "modifications": "AsHPPDm-F372A-F415W-02 Nucleotide Sequence", "notes": "vector DBN11792"}, "B2": {"name": "AsHPPDm-F383Y-02: nucleotide sequence encoding Avena sativa HPPD with F383Y; vector DBN11795 (nucleic acid)", "DNA": "ATGCCACCTACTCCAGCTACAGCTACTGGTGCTGCTGCTGCTGCCGTTACTCCTGAGCACGCTGCCAGGTCATTCCCCAGGGTGGTTCGCGTGAACCCCAGATCTGATAGGTTCCCAGTTCTGAGCTTCCACCATGTTGAGCTGTGGTGCGCTGATGCTGCTTCTGCTGCTGGCAGGTTCTCTTTCGCTCTTGGTGCTCCACTCGCTGCTAGATCTGATCTGTCTACAGGAAATAGCGCTCATGCCTCACTCCTGCTTCGCTCAGGTGCTTTGGCCTTCCTCTTCACCGCTCCATATGCTCCCCCACCTCAGGAGGCTGCTACTGCTGCTGCTACAGCCTCCATTCCAAGCTTCTCAGCTGATGCCGCTAGAACCTTCGCTGCTGCTCATGGACTTGCCGTGAGGTCTGTTGGTGTTCGCGTGGCTGATGCTGCTGAGGCTTTCAGAGTTTCCGTTGCCGGCGGAGCTAGGCCAGCTTTCGCTCCTGCTGATTTGGGACATGGTTTCGGCCTGGCTGAGGTTGAGCTTTACGGTGACGTGGTTCTCCGCTTCGTGTCTTACCCAGATGAGACTGACCTGCCTTTCCTTCCCGGCTTCGAGAGAGTTTCCTCTCCTGGTGCCGTGGATTACGGCCTGACAAGGTTCGACCACGTGGTTGGAAACGTTCCCGAGATGGCTCCAGTGATCGATTACATGAAGGGCTTCCTTGGATTCCATGAGTTCGCCGAGTTCACTGCTGAGGACGTGGGAACCACTGAGTCCGGTTTGAACTCTGTGGTTCTCGCCAACAATTCTGAGGCTGTTTTGCTCCCTCTGAATGAGCCTGTGCATGGAACCAAGAGGAGAAGCCAGATTCAAACTTACCTGGAGTACCACGGTGGCCCTGGAGTTCAGCATATCGCCCTTGCTTCTAATGATGTGTTGCGCACACTCAGAGAGATGCGCGCCAGAACCCCCATGGGAGGTTTCGAGTTCATGGCCCCACCACAGGCTAAGTACTACGAGGGCGTTAGAAGGATTGCTGGAGACGTGTTGAGCGAGGAGCAGATCAAGGAGTGCCAAGAGCTGGGTGTTCTTGTGGATAGGGATGACCAGGGCGTTCTGCTTCAAATTTTCACTAAGCCAGTGGGCGACCGCCCTACATTCTATCTTGAGATGATTCAAAGAATCGGCTGCATGGAGAAGGATGAGGTTGGACAGGAGTACCAAAAGGGCGGATGCGGTGGCTTCGGAAAGGGTAACTTCAGCGAGTTGTTCAAGTCAATCGAGGACTACGAGAAGAGCCTCGAGGTGAAGCAGTCAGTGGTTGCCCAAAAGTCCTGA", "modifications": "AsHPPDm-F383Y-02 Nucleotide Sequence", "notes": "vector DBN11795"}},
  "key": {"[1]": {"system": "Arabidopsis thaliana T1 plants", "test": "Mesotrione tolerance of transgenic Arabidopsis thaliana T1 plants (spray, bleached leaf area grade, damage score)", "format": "in vivo", "set-up": "Scores: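 damage score 0-100 computed as Σ(N×S)/(T×M)×100 over grades 0-3 with higher meaning more damage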", "settings": "for Classification and statistics of the grade of pesticide damage Grade 0 / Classification and statistics of the grade of pesticide damage Grade 1 / Classification and statistics of the grade of pesticide damage Grade 2 / Classification and statistics of the grade of pesticide damage Grade 3: number of plants in grade", "in_short": "(§1)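 Damage graded 0–3 from the proportion of bleached leaf area 7 days after spraying. Plants were glufosinate-selected T1 lines, 18 days after sowing, plus vector and wild-type controls. Rates: mesotrione 52.5–420, isoxaflutole 35–280, topramezone 25–200 g ai/ha, with water (0×).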"}, "[2]": {"system": "Arabidopsis thaliana T1 plants", "test": "Isoxaflutole tolerance of transgenic Arabidopsis thaliana T1 plants (spray, bleached leaf area grade, damage score)", "format": "in vivo", "settings": "for Classification and statistics of the grade of pesticide damage Grade 0 / Classification and statistics of the grade of pesticide damage Grade 1 / Classification and statistics of the grade of pesticide damage Grade 2 / Classification and statistics of the grade of pesticide damage Grade 3: number of plants in grade", "in_short": "as §1"}},
  "data": [
    {"molecule": "B1", "values": [
      {"measurement": "Resistance evaluation", "setting": "[1]; mesotrione 210 g ai/ha", "result": "Moderately"},
      {"measurement": "Scores", "setting": "[1]; mesotrione 210 g ai/ha", "result": 31},
      {"measurement": "Classification and statistics of the grade of pesticide damage Grade 0", "setting": "[1]; mesotrione 210 g ai/ha", "result": 6},
      {"measurement": "Classification and statistics of the grade of pesticide damage Grade 1", "setting": "[1]; mesotrione 210 g ai/ha", "result": 6},
      {"measurement": "Classification and statistics of the grade of pesticide damage Grade 2", "setting": "[1]; mesotrione 210 g ai/ha", "result": 3},
      {"measurement": "Classification and statistics of the grade of pesticide damage Grade 3", "setting": "[1]; mesotrione 210 g ai/ha", "result": 1},
      {"measurement": "Resistance evaluation", "setting": "[1]; mesotrione 420 g ai/ha", "result": "Poorly resistant"},
      {"measurement": "Scores", "setting": "[1]; mesotrione 420 g ai/ha", "result": 50},
      {"measurement": "Classification and statistics of the grade of pesticide damage Grade 0", "setting": "[1]; mesotrione 420 g ai/ha", "result": 0},
      {"measurement": "Classification and statistics of the grade of pesticide damage Grade 1", "setting": "[1]; mesotrione 420 g ai/ha", "result": 8},
      {"measurement": "Classification and statistics of the grade of pesticide damage Grade 2", "setting": "[1]; mesotrione 420 g ai/ha", "result": 8},
      {"measurement": "Classification and statistics of the grade of pesticide damage Grade 3", "setting": "[1]; mesotrione 420 g ai/ha", "result": 0},
      {"measurement": "Resistance evaluation", "setting": "[2]; isoxaflutole 140 g ai/ha", "result": "Moderately"},
      {"measurement": "Scores", "setting": "[2]; isoxaflutole 140 g ai/ha", "result": 31},
      {"measurement": "Classification and statistics of the grade of pesticide damage Grade 0", "setting": "[2]; isoxaflutole 140 g ai/ha", "result": 5},
      {"measurement": "Classification and statistics of the grade of pesticide damage Grade 1", "setting": "[2]; isoxaflutole 140 g ai/ha", "result": 7},
      {"measurement": "Classification and statistics of the grade of pesticide damage Grade 2", "setting": "[2]; isoxaflutole 140 g ai/ha", "result": 4},
      {"measurement": "Classification and statistics of the grade of pesticide damage Grade 3", "setting": "[2]; isoxaflutole 140 g ai/ha", "result": 0},
      {"measurement": "Resistance evaluation", "setting": "[2]; isoxaflutole 280 g ai/ha", "result": "Poorly"},
      {"measurement": "Scores", "setting": "[2]; isoxaflutole 280 g ai/ha", "result": 63},
      {"measurement": "Classification and statistics of the grade of pesticide damage Grade 0", "setting": "[2]; isoxaflutole 280 g ai/ha", "result": 0},
      {"measurement": "Classification and statistics of the grade of pesticide damage Grade 1", "setting": "[2]; isoxaflutole 280 g ai/ha", "result": 3},
      {"measurement": "Classification and statistics of the grade of pesticide damage Grade 2", "setting": "[2]; isoxaflutole 280 g ai/ha", "result": 12},
      {"measurement": "Classification and statistics of the grade of pesticide damage Grade 3", "setting": "[2]; isoxaflutole 280 g ai/ha", "result": 1}
    ]},
    {"molecule": "B2", "values": [
      {"measurement": "Resistance evaluation", "setting": "[1]; mesotrione 210 g ai/ha", "result": "Non-resistant"},
      {"measurement": "Scores", "setting": "[1]; mesotrione 210 g ai/ha", "result": 100},
      {"measurement": "Classification and statistics of the grade of pesticide damage Grade 0", "setting": "[1]; mesotrione 210 g ai/ha", "result": 0},
      {"measurement": "Classification and statistics of the grade of pesticide damage Grade 1", "setting": "[1]; mesotrione 210 g ai/ha", "result": 0},
      {"measurement": "Classification and statistics of the grade of pesticide damage Grade 2", "setting": "[1]; mesotrione 210 g ai/ha", "result": 0},
      {"measurement": "Classification and statistics of the grade of pesticide damage Grade 3", "setting": "[1]; mesotrione 210 g ai/ha", "result": 16},
      {"measurement": "Resistance evaluation", "setting": "[1]; mesotrione 420 g ai/ha", "result": "Non-resistant"},
      {"measurement": "Scores", "setting": "[1]; mesotrione 420 g ai/ha", "result": 100},
      {"measurement": "Classification and statistics of the grade of pesticide damage Grade 0", "setting": "[1]; mesotrione 420 g ai/ha", "result": 0},
      {"measurement": "Classification and statistics of the grade of pesticide damage Grade 1", "setting": "[1]; mesotrione 420 g ai/ha", "result": 0},
      {"measurement": "Classification and statistics of the grade of pesticide damage Grade 2", "setting": "[1]; mesotrione 420 g ai/ha", "result": 0},
      {"measurement": "Classification and statistics of the grade of pesticide damage Grade 3", "setting": "[1]; mesotrione 420 g ai/ha", "result": 16},
      {"measurement": "Resistance evaluation", "setting": "[2]; isoxaflutole 140 g ai/ha", "result": "Non-resistant"},
      {"measurement": "Scores", "setting": "[2]; isoxaflutole 140 g ai/ha", "result": 100},
      {"measurement": "Classification and statistics of the grade of pesticide damage Grade 0", "setting": "[2]; isoxaflutole 140 g ai/ha", "result": 0},
      {"measurement": "Classification and statistics of the grade of pesticide damage Grade 1", "setting": "[2]; isoxaflutole 140 g ai/ha", "result": 0},
      {"measurement": "Classification and statistics of the grade of pesticide damage Grade 2", "setting": "[2]; isoxaflutole 140 g ai/ha", "result": 0},
      {"measurement": "Classification and statistics of the grade of pesticide damage Grade 3", "setting": "[2]; isoxaflutole 140 g ai/ha", "result": 16},
      {"measurement": "Resistance evaluation", "setting": "[2]; isoxaflutole 280 g ai/ha", "result": "Non-resistant"},
      {"measurement": "Scores", "setting": "[2]; isoxaflutole 280 g ai/ha", "result": 100},
      {"measurement": "Classification and statistics of the grade of pesticide damage Grade 0", "setting": "[2]; isoxaflutole 280 g ai/ha", "result": 0},
      {"measurement": "Classification and statistics of the grade of pesticide damage Grade 1", "setting": "[2]; isoxaflutole 280 g ai/ha", "result": 0},
      {"measurement": "Classification and statistics of the grade of pesticide damage Grade 2", "setting": "[2]; isoxaflutole 280 g ai/ha", "result": 0},
      {"measurement": "Classification and statistics of the grade of pesticide damage Grade 3", "setting": "[2]; isoxaflutole 280 g ai/ha", "result": 16}
    ]}
  ]
}
